This experiment concerns the target gp49d, deletion mutant of the phage LKA1 tailspike protein LKA1gp49 without the N-terminal particle-binding domain (residues 1-167) (Pseudomonas phage LKA1). As to the kind of experiment: crystal structure; gp49d crystallised in 8% PEG 6000, 0.8 M NaCl, 0.1 M Na acetate pH 3.5 at 18 °C, 20 mg/ml; molecular replacement with gp61d; homotrimer.

One may read the stoichiometry N as a count of units in the complex or per binding partner. Substance “gp49d, deletion mutant of the phage LKA1 tailspike protein LKA1gp49 without the N-terminal particle-binding domain (residues 1-167) (domain or fragment)” displayed a stoichiometry N of 3.

For the origin of these results see article PMC5701251.
